For assay [1], the target named is T1, recombinant human IL-13 (human, UniProt P35225 35-146). Kind of assay: cell-based or functional assay.
Assay [2] deals with T1, recombinant human IL-13. Kind of assay: SPR (Biacore T200), antibody captured, hIL-13 analyte 20-0.6 nM. For orientation: SPR reads the build-up and loss of mass on a sensor chip optically.
Experimental: Recombinant cyno IL-13 (rc-IL-13) was tested at 200 nM with a 2-fold dilution (FIGS. 5C-5D).
In another assay the target is BSA (UniProt P02769 25-607). Kind of assay: ELISA, 250 ng coated ligand per well, 100 nM IgG, anti-human Fc-HRP. On the technique in general: ELISA stands for enzyme-linked immunosorbent assay.
Sequence of BSA (P02769 25-607 limits assumed): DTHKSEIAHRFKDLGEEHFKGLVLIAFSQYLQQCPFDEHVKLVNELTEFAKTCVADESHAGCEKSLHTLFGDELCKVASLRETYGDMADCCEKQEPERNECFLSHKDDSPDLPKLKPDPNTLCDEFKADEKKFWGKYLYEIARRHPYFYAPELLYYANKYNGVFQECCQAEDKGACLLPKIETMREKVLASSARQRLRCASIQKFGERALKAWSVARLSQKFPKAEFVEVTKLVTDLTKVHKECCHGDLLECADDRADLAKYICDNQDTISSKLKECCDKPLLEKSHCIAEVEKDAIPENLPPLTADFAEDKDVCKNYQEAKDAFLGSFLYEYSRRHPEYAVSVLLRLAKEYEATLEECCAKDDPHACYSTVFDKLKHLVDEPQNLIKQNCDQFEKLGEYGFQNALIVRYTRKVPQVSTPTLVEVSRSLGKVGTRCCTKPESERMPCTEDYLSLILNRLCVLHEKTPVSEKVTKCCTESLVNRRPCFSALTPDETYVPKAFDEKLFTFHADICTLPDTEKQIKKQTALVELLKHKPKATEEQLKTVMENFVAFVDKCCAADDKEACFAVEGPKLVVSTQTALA
The target of assay [3] is T2, recombinant cynomolgus monkey IL-13 (cynomolgus monkey, UniProt Q0PW92 21-132).
T2 construct: bought; also called rc-IL-13; cIL-13
T2 sequence (Q0PW92 entry or part of it): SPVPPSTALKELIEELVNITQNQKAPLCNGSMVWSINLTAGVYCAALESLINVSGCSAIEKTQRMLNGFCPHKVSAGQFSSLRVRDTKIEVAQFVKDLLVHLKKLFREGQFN
Kind of assay: ELISA, ligand coated, IgG 1-1000 nM.

For assay [4], the target named is T3, cynomolgus monkey (cyno) TSLP (cynomolgus monkey, UniProt A0A7N9CAT7 29-159).
T3 construct: also called cTSLP; cynomolgus TSLP
T3 sequence (A0A7N9CAT7 entry or part of it): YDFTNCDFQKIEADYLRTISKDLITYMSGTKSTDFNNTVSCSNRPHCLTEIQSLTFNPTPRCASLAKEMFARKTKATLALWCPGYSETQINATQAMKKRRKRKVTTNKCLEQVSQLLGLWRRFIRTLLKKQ
Kind of assay: ELISA, ligand coated, IgG 1-1000 nM.

In the next assay the target is T4, human TSLP (human, UniProt Q969D9 29-159).
T4 construct: also called hTSLP; rhTSLP
Kind of assay: ELISA, ligand coated, IgG 1-1000 nM.

The target in the next assay is IL-2 (Homo sapiens (Human), UniProt P60568 21-153). Put plainly: specificity ELISA, 250 ng ligand coated.
Sequence of IL-2 (P60568 21-153 limits assumed): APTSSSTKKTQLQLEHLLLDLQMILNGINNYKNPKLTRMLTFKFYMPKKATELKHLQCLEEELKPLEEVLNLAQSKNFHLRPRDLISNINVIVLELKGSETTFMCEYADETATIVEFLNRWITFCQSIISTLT

T1 sequence (P35225 35-146 limits assumed): as the sequence (Q0PW92 entry or part of it) above, with S1G, K10R, V42M, N67S, R83H, V100L counted along it

B1: BDG33.025 (antibody, V domains shown)
VH: QMQLVESGGGVVQPGRSLRLSCAASGFTFRTYGMHWVRQAPGKGLEWVADIWYDGSNKHYADSVKGRFTITRDNSKNTLNLQMNSLRAEDTAVYYCARAPQWYLVAEPFDLWGQGTMVTVSS
VL: SYVLTQPPSVSVAPGQTARITCGGNLIGSKLVHWYQQKPGQAPVLVVYDDSDRPSLIPERFSGSNSGNTATLTISRVEAGDEADYYCQVWDSSSDGVVFGGGTKLTVL
notes: standard IgG; also called BGD33.025; BDG33.0025
Take B1: the “IC50, HEK-Blue IL-4/IL-13 reporter (0.4 nM rh-IL-13)” value with recombinant human IL-13 [1] worked out at 25 nM. Besides, the Kd with recombinant human IL-13 [2] worked out at 0.903 nM. For the same molecule, the koff in the assay with recombinant human IL-13 [2] came to 0.0036 s⁻¹. The kon with recombinant human IL-13 [2] was determined as 4.07e+06 M⁻¹ s⁻¹. For the same molecule, the binding result in the assay with BSA is “no binding (tested: 100 nM)”; with IL-2 it was “no binding (tested: 100 nM IgG)”. Also, the EC50 in assay [3] stood at 1.5 nM; in assay [4] it was 148 nM; in the assay with human TSLP it was 12.8 nM.

As a reminder, the Kd is the free concentration of one partner at which half of the binding sites on the other are occupied at equilibrium, for simple one-to-one binding. For orientation: koff means a measure of how fast the partners let go of each other. As a reminder, the kon is the rate constant with which the complex forms. As usually defined, the EC50 is the midpoint of the concentration-response curve.

For the origin of these results see US20240059769A1 (BIOLOJIC DESIGN, published 2024).
